Target: T1, neural epidermal growth factor-like like 2 (NELL2), C-terminally 6xHis-tagged recombinant (UniProt Q61220 25-819)
T1 construct: NELL2, secreted protein; also called purified recombinant NELL2; source: human 293-F cells, transiently expressed, purified from conditioned medium (ammonium sulphate, Ni-NTA, PD-10)
T1 sequence (looked up): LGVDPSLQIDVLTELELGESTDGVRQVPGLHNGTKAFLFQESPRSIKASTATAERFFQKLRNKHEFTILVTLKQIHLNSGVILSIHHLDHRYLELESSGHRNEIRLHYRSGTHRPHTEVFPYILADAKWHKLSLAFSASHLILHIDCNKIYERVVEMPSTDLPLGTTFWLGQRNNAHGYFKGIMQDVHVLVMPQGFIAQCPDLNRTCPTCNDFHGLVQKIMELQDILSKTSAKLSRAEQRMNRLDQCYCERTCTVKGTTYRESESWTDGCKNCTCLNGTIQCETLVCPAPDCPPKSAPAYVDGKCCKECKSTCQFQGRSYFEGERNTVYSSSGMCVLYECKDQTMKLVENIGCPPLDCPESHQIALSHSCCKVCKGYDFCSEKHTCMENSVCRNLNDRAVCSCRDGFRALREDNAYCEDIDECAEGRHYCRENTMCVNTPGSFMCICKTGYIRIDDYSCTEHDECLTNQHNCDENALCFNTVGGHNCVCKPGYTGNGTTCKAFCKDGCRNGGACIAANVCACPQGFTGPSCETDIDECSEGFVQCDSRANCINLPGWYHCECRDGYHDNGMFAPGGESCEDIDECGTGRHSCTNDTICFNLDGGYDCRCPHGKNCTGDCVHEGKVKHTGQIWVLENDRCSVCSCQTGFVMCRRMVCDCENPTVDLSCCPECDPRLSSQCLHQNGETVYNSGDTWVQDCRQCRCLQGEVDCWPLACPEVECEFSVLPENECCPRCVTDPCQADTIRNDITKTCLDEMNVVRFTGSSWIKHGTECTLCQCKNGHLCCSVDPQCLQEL
Experiment: SPR; purified NELL2 immobilised on series S sensor chip CM5; purified NICOL in PBS as analyte; Biacore T200
Settings: both partners purified

- Kd: 87 nM
- koff: 0.0062 s⁻¹
- kon: 72000 M⁻¹ s⁻¹
B1: NELL2-interacting cofactor for lumicrine signalling (NICOL), 6xHis-tagged recombinant (natural protein, mouse, UniProt Q3UR78 29-90, looked up)
chain: EPATGSAVPAQSRPCVDCHAFEFMQRALQDLRKTAYSLDARTETLLLQAERRALCACWPAGR
notes: mouse NICOL (predicted gene Gm1673, ortholog of human C4orf48), small secreted protein; cDNA encoding mouse NICOL followed by 6xHis; purified from conditioned medium, so without its signal peptide; also called purified recombinant NICOL protein; source: human 293-F cells, transiently expressed, purified from conditioned medium (ammonium sulphate, Ni-NTA, PD-10)

Reference: PMC10125973, “A small secreted protein NICOL regulates lumicrine-mediated sperm maturation and male fertility” (Nature Communications, 2023)
